Laboratory results as given in paper PMC9482650, “Quantitative fragmentomics allow affinity mapping of interactomes” (Nature Communications, 2022).

Biological target: Q8IUC4
Assay: holdup assay
Conditions: plain residues with an end cap or a label only (N-terminal biotin on a linker: (peg)3)

Q: Which pKd does the source give for QQSMSSADSTQA [SARS-Cov2-N, P0DTC9] here?
A: below the threshold
